In article PMC5934816:

Biological target: mLDH, mammalian lactate dehydrogenase (bovine) (UniProt P19858)
Test: ELONA
Conditions: ELONA: 500 ng immobilized protein; aptamer in HMCKN (2 mM HEPES, 0.2 mM MgCl2, 0.2 mM CaCl2, 0.2 mM KCl, 15 mM NaCl, pH 7.4), 2 h, room temperature; washes …

For “GCCTGTTGTGAGCCTCCTAACCAGCTCGTAGAAAAAAAAAGATATTGCTTCAATTATCTCCTCGCGTTCAATTAACCCAGCATGCTTATTCTTGTCTCCC [rLDH 4]”, the binding signal was 0.053 OD450.
